Legend:
[1] = biological target: CENP-C-CD R521A R521A (Homo sapiens) (UniProt Q03188); test: EMSA; settings: apparent Kd; 200 nM nucleosome; EMSA: 200 nM nucleosomes, 20 mM Tris-Cl pH 7.5, 1 mM EDTA, 1 mM DTT, on ice 1 h, 5% native PAGE; footprinting at room temperature, 5 min
[2] = biological target: CENP-C-CD R522A R522A (Homo sapiens) (UniProt Q03188); test: EMSA; settings: apparent Kd; 200 nM nucleosome; EMSA: 200 nM nucleosomes, 20 mM Tris-Cl pH 7.5, 1 mM EDTA, 1 mM DTT, on ice 1 h, 5% native PAGE; footprinting at room temperature, 5 min

ATCAAATATCCACCTGCAGATTCTACCAAAAGTGTATTTGGAAACTGCTCCATCAAAAGGCATGTTCAGCTCTGTGAGTGAAACTCCATCATCACAAAGAATATTCTGAGAATGCTTCCGTTTGCCTTTTATATGAACTTCCTCGAT (double strand) [CENP-A NCP, Cy5-H2B, 147 bp DNA]
Kd [1]: 267 nM
Kd [2]: 655 nM
